From patent US7781394B2, “Methods for identifying anti-tumor and/or anti-angiogenesis drugs with deoxynucleoside 5′-monophosphate N-glycosidase as the target” (Institut Pasteur, priority 2006, dated 2010)

Substrate: O=P(O)(O)OC[C@H]1O[C@@H](n2cnc3c(O)ncnc32)C[C@@H]1O
Assay: Kinetic parameters of His-RCL (wild-type) with dNMP substrates, initial velocity measurements
Assay type: biochemical, rat
Conditions: purine deoxynucleotides; 37.0 °C
Procedure: The enzyme activity was determined either spectrophotometrically by following one of the reaction products, hypoxanthine or deoxyribose 5-phosphate, or by HPLC separation and UV detection of the released nucleobase and the remaining substrate. a) dIMP was used as a substrate and the hypoxanthine released oxidized to uric acid by xanthine oxidase. […] The decrease in absorbance at 340 nm was followed on a Amersham Biosciences Ultrospec 3100 pro spectrophotometer, using a millimolar absorbance coefficient of 6.22. […] Initial velocity experiments were carried out at variable concentrations of the six deoxynucleoside 5'-monophosphate: dAMP, dCMP, dGMP, dIMP, dTMP and dUMP (Table 1).

B1: His-RCL (deoxynucleoside 5′-monophosphate N-glycosidase) (Rattus norvegicus) (protein)
chain: MAASGEQAPCSVYFCGSIRGGREDQALYARIVSRLRRYGKVLTEHVADAELEPLGEEAAGGDQFIHEQDLNWLQQADVVVAEVTQPSLGVGYELGRAVALGKPILCLFRPQSGRVLSAMIRGAADGSRFQVWDYAEGEVETMLDRYFEAYLPQKTASSSHPSA
notes: made in house; host or cells: E. coli Bli5 (BL21 (DE3) pDIA17), plasmid pET28aRcl
  Km: 450 µM
  kcat: 0.0066 s⁻¹
  kcat/Km: 14.7 M⁻¹ s⁻¹
